Square brackets hold non-standard residues; d marks the D form. Ends that are not written are not given here. * marks the point of attachment. SO3H = sulfate on Tyr (sulfated tyrosine), O=S(=O)(O)*; sY = N[C@@H](Cc1ccc(OS(=O)(=O)O)cc1)C(=O)O; pGlu = O=C1CC[C@@H](C(=O)O)N1

The text below walks through data of article PMC3981819, “Signaling Properties and Pharmacological Analysis of Two Sulfakinin Receptors from the Red Flour Beetle, Tribolium castaneum” (PLoS ONE, 2014).

Test [1] has as its target Tribolium castaneum sulfakinin receptor 1 (T. castaneum).
In test [2] the target is Tribolium castaneum sulfakinin receptor 2 (T. castaneum).
Test [3] addresses Tribolium castaneum sulfakinin receptor 1 (T. castaneum). This is another data set of the same source.
For test [4], the target named is Tribolium castaneum sulfakinin receptor 2 (T. castaneum). This is another data set of the same source.
In test [5] the target is Tribolium castaneum sulfakinin receptor 1 (T. castaneum). The source holds these as a separate data set.
Test [6] has as its target Tribolium castaneum sulfakinin receptor 2 (T. castaneum). The source holds these as a separate data set.
In test [7] the target is Tribolium castaneum sulfakinin receptor 1 (T. castaneum). The source holds these as a separate data set.
Test [8] concerns the target Tribolium castaneum sulfakinin receptor 2 (T. castaneum). The source holds these as a separate data set.

B1: 1679[φ1]wp-4 (peptide)
peptide: [pGlu]PS[sY]DRDIMSF-NH2
SMILES: CC[C@H](C)[C@H](NC(=O)[C@H](CC(=O)O)NC(=O)[C@H](CCCNC(=N)N)NC(=O)[C@H](CC(=O)O)NC(=O)[C@H](Cc1ccc(OS(=O)(=O)O)cc1)NC(=O)[C@H](CO)NC(=O)[C@@H]1CCCN1C(=O)[C@@H]1CCC(=O)N1)C(=O)N[C@@H](CCSC)C(=O)N[C@@H](CO)C(=O)N[C@@H](Cc1ccccc1)C(N)=O
Turning to B1, the aequorin bioluminescence in CHO-WTA11 cells transfected with the receptor, peptide at 1 μM, % of the response to 1 μM sTrica-SK(5–13) in test [1] came to 16.5%; in test [2], 16.6%.

B2: 1835[φ2]wp-4 (peptide)
peptide: SDD[sY]GHMRF-NH2
modifications: N-terminus assumed
SMILES: CSCC[C@H](NC(=O)[C@H](Cc1c[nH]cn1)NC(=O)CNC(=O)[C@H](Cc1ccc(OS(=O)(=O)O)cc1)NC(=O)[C@H](CC(=O)O)NC(=O)[C@H](CC(=O)O)NC(=O)[C@@H](N)CO)C(=O)N[C@@H](CCCNC(=N)N)C(=O)N[C@@H](Cc1ccccc1)C(N)=O
On to B2, for which the aequorin bioluminescence in CHO-WTA11 cells transfected with the receptor, peptide at 1 μM, % of the response to 1 μM sTrica-SK(5–13) in test [1] was determined as 58.2%; in test [2] it was 41.4%.

B3: 1678A[φ1]wp-4 (peptide)
peptide: D[sY]RPLQF-NH2
modifications: N-terminus assumed
SMILES: CC(C)C[C@H](NC(=O)[C@@H]1CCCN1C(=O)[C@H](CCCNC(=N)N)NC(=O)[C@H](Cc1ccc(OS(=O)(=O)O)cc1)NC(=O)[C@@H](N)CC(=O)O)C(=O)N[C@@H](CCC(N)=O)C(=O)N[C@@H](Cc1ccccc1)C(N)=O
For the molecule B3, the aequorin bioluminescence in CHO-WTA11 cells transfected with the receptor, peptide at 1 μM, % of the response to 1 μM sTrica-SK(5–13) is 40.8% in test [1] and 32.6% in test [2].

B4: sulfated C-terminal fragment of T. castaneum SK comprising amino acids 5–13 (peptide)
peptide: FDDY(SO3H)GHMRF-NH2
modifications: N-terminus assumed
SMILES: CSCC[C@H](NC(=O)[C@H](Cc1c[nH]cn1)NC(=O)CNC(=O)[C@H](Cc1ccc(OS(=O)(=O)O)cc1)NC(=O)[C@H](CC(=O)O)NC(=O)[C@H](CC(=O)O)NC(=O)[C@@H](N)Cc1ccccc1)C(=O)N[C@@H](CCCNC(=N)N)C(=O)N[C@@H](Cc1ccccc1)C(N)=O
As to B4, the aequorin bioluminescence in CHO-WTA11 cells transfected with the receptor, peptide at 1 μM, % of the response to 1 μM sTrica-SK(5–13) (this peptide is the 100% reference) in test [1] and in test [2] was 100% throughout. Also, the EC50 of CRE-luciferase bioluminescence (cAMP) in HEK293T cells cotransfected with the receptor in test [3] was 0.0049 nM; in test [4] it was 1.4 nM. For the same molecule, the EC50 of aequorin bioluminescence (Ca2+) in CHO-WTA11 cells (Gα16) transfected with the receptor, peptide 1 fM to 1 μM in test [5] was 0.0995 nM; in test [6], 0.524 nM. The figures for the EC50 of aequorin bioluminescence (Ca2+) in CHO-PAM28 cells (no Gα16) transfected with the receptor in test [7] and in test [8] were 0.0585 nM and 1.61 nM, respectively.

B5: sulfated SK from the migratory locust, Locusta migratoria (peptide)
peptide: [pGlu]LASDDY(SO3H)GHMRF-NH2
SMILES: CSCC[C@H](NC(=O)[C@H](Cc1c[nH]cn1)NC(=O)CNC(=O)[C@H](Cc1ccc(OS(=O)(=O)O)cc1)NC(=O)[C@H](CC(=O)O)NC(=O)[C@H](CC(=O)O)NC(=O)[C@H](CO)NC(=O)[C@H](C)NC(=O)[C@H](CC(C)C)NC(=O)[C@@H]1CCC(=O)N1)C(=O)N[C@@H](CCCNC(=N)N)C(=O)N[C@@H](Cc1ccccc1)C(N)=O
On to B5, for which the aequorin bioluminescence in CHO-WTA11 cells transfected with the receptor, peptide at 1 μM, % of the response to 1 μM sTrica-SK(5–13) in test [1] came to 75%; in test [2] it was 79.9%. Further, the EC50 of aequorin bioluminescence (Ca2+) in CHO-WTA11 cells (Gα16) transfected with the receptor, peptide 1 fM to 1 μM in test [5] was 16.8 nM; in test [6], 776 nM.

B6: 1678B[φ1]wp-6 (peptide)
peptide: DG[sY]RPLQF-NH2
modifications: N-terminus assumed
SMILES: CC(C)C[C@H](NC(=O)[C@@H]1CCCN1C(=O)[C@H](CCCNC(=N)N)NC(=O)[C@H](Cc1ccc(OS(=O)(=O)O)cc1)NC(=O)CNC(=O)[C@@H](N)CC(=O)O)C(=O)N[C@@H](CCC(N)=O)C(=O)N[C@@H](Cc1ccccc1)C(N)=O
Consider B6, for which the aequorin bioluminescence in CHO-WTA11 cells transfected with the receptor, peptide at 1 μM, % of the response to 1 μM sTrica-SK(5–13) worked out at 28.5% in test [1] and 19.9% in test [2].
